According to paper PMC4305340:
Like-named read-outs stand apart in the source and are kept apart here.

Assays:
Test in all cases: fluorescence polarization
PrfA wild type [1] = target: T1, PrfA wild type (Listeria monocytogenes, UniProt P22262 1-237)
PrfA(C/A)4 = PrfA(C/A)4 (Listeria monocytogenes, UniProt P22262 1-237, C38A;C144A;C205A;C229A)
PrfA wild type [2] = target: T1, PrfA wild type; remark: listed apart in the source

B1: Phly PrfA box (dsDNA)
DNA 1: TGAGGCATTAACATTTGTTAACGACGAT
DNA 2: ATCGTCGTTAACAAATGTTAATGCCTCA
B1 gave a Kd (PrfA wild type [1]) of 34.2 nM and a Kd (PrfA(C/A)4) of 32.8 nM.

B2: PactA PrfA box (dsDNA)
DNA 1: AACTGATTAACAAATGTTAGAGAAAACT
DNA 2: AGTTTTCTCTAACATTTGTTAATCAGTT
In the case of B2, the Kd (PrfA wild type [2]) is reported as 96.4 nM and the Kd (PrfA(C/A)4) is reported as 125 nM.
